The numbers were not newly measured in PMC7855609, which cites them from elsewhere.

The term pKa denotes the negative logarithm of the acid dissociation constant.

One series has as its target Asp226 (UniProt position 292, CLALVDTGASY). Put plainly: kinetics. The conditions noted are these: Enzyme turning over the wild-type peptide substrate PTDP (His at P2).
In a further series the target is Asp38 (UniProt position 104, FKVVFDTGSSN). The series is described as follows: kinetics. As to conditions: Enzyme turning over the wild-type peptide substrate PTDP (His at P2).

Consider “Renin (recombinant human renal renin) (Homo sapiens)”, for which the values for the pKa in the series with Asp226 and in the series with Asp38 were 6.3 and 5.3, respectively.
